Columns and labels:
Experiment in all cases: NMR
Asp44 [1] = conditions: isolated peptide fragments, largely unstructured; cited from earlier work
Glu45 = Glu45 (UniProt position 795, --LSDEDFKAV); conditions: native (folded) state
Glu72 = Glu72 (UniProt position 822, QHLKKEKGLF-); conditions: native (folded) state
Asp46 = Asp46 (UniProt position 796, -LSDEDFKAVF); conditions: native (folded) state
Asp44 [2] = molecular target: Asp44 (UniProt position 794, ---LSDEDFKA); conditions: native (folded) state; cited from earlier work
[3] = fully folded over the whole pH range

Row | Substance | pKa (Asp44 [1]) | pKa (Glu45; [3]) | pKa (Glu72; [3]) | pKa (Asp46; [3]) | pKa (Glu45; cited from earlier work) | pKa (Asp44 [2]) | pKa (Glu72; cited from earlier work) | pKa (Asp46; cited from earlier work)
1 | HP36 peptide fragment, residues 41-53 (not stated in the article (Gallus gallus inferred)) | 4.00 | – | – | – | – | – | – | –
2 | Villin headpiece helical subdomain HP36 D44N (not stated in the article (Gallus gallus inferred); D44N) | – | 3.86±0.02 | 4.32±0.02 | 3.43±0.05 | – | – | – | –
3 | Villin headpiece helical subdomain HP36 D44N/K48M (not stated in the article (Gallus gallus inferred); D44N;K48M) | – | 4.39±0.05 | 4.37±0.03 | 3.49±0.08 | – | – | – | –
4 | Villin headpiece helical subdomain HP36 K48M (not stated in the article (Gallus gallus inferred); K48M) | – | – | – | – | 4.68±0.09 | 3.23±0.07 | 4.41±0.03 | 3.38±0.05
5 | Villin headpiece helical subdomain HP36, wild type (not stated in the article (Gallus gallus inferred)) | – | – | – | – | 3.95±0.02 | 3.04±0.12 | 4.37±0.03 | 3.44±0.11

— publication PMC8197028
